The source of these data is doi:10.1101/296517.

The target in test [1] is giantin (rat hepatocytes) (rat (endogenous in primary hepatocytes)). Put plainly: Western blot of lysates. (In general: Immunoblotting shows a protein as a band on a membrane.)
For test [2], the target named is giantin (human (endogenous in HeLa, LNCaP, PC-3, liver tissue)) (UniProt Q14789). Put plainly: Western blot of lysates. Conditions: remark: other sources report otherwise.

Broadly, the stoichiometry N is the number of molecules, sites or subunits per partner or assembly.

On to “giantin (rat hepatocytes) (natural protein)”, for which the stoichiometry N in test [1] stood at 2.

In test [2], giantin, Q14789 1-3259 displayed a stoichiometry N of 2.
